This is an account of results in article PMC3694354 (Biochemistry, 2008).

Series [1] concerns the target T1, 4-chlorobenzoate:CoA ligase (CBL; CBAL) (Alcaligenes sp. AL3007, UniProt Q8GN86).
T1 sequence (Q8GN86 1-504): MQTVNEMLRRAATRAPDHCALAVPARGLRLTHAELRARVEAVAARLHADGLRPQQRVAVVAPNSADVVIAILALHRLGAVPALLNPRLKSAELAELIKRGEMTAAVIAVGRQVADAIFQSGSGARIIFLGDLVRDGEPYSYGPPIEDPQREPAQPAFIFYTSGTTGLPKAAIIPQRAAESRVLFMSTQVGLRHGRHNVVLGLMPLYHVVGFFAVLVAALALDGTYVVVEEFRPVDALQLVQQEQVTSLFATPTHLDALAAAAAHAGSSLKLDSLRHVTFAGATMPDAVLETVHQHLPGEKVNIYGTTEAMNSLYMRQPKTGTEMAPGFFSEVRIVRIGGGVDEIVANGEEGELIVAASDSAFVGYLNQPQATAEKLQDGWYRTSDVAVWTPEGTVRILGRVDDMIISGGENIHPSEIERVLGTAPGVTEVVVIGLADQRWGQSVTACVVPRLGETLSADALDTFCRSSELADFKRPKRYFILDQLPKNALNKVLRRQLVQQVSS
Briefly: direct spectrophotometric assay at […] nm, inhibition kinetics. Format: biochemical.

Series [2] addresses T1, 4-chlorobenzoate:CoA ligase (CBL; CBAL). Briefly: coupled AMP-forming assay, inhibition kinetics. Format: biochemical.
Substrate in series [3]: CC(C)(COP(=O)(O)OP(=O)(O)OC[C@H]1O[C@@H](n2cnc3c(N)ncnc32)[C@H](O)[C@@H]1OP(=O)(O)O)[C@@H](O)C(=O)NCCC(=O)NCCS
The series is described as follows: coupled AMP-forming assay, initial velocity. Format: biochemical, Alcaligenes sp. AL3007. To be noted: 3.5 mM ATP, 4-methylbenzoate varied, 15 mM MgCl2, pH 7.5, 25 °C.

Substrate in series [4]: Nc1ncnc2c1ncn2[C@@H]1O[C@H](COP(=O)(O)OP(=O)(O)OP(=O)(O)O)[C@@H](O)[C@H]1O
Briefly: coupled AMP-forming assay, initial velocity. Format: biochemical, Alcaligenes sp. AL3007. The note with it: 200 μM 4-methylbenzoate, CoA varied, 15 mM MgCl2, pH 7.5, 25 °C.

Substrate in the series “purified protein”: Cc1ccc(C(=O)O)cc1
Briefly: purified protein. The note with it: 3.5 mM ATP, CoA varied, 15 mM MgCl2, pH 7.5, 25 °C.

As for `Nc1ncnc2c1ncn2[C@@H]1O[C@H](COP(=O)(O)O)[C@@H](O)[C@H]1O` [AMP], the Ki in series [1] stood at 120 ± 20 µM.

In turn, `CC(C)(COP(=O)(O)OP(=O)(O)OC[C@H]1O[C@@H](n2cnc3c(N)ncnc32)[C@H](O)[C@@H]1OP(=O)(O)O)[C@@H](O)C(=O)NCCC(=O)NCCSCC(=O)c1ccc(Cl)cc1` [4-CP-CoA, 4-chlorophenacyl-CoA] gave a Ki in series [2] of 21 ± 8 µM.

In series [2], `O=P(O)(O)OP(=O)(O)O` [PPi] yielded a Ki of 95 ± 10 µM.

In series [2], `CC(C)(COP(=O)(O)OP(=O)(O)OC[C@H]1O[C@@H](n2cnc3c(N)ncnc32)[C@H](O)[C@@H]1OP(=O)(O)O)[C@@H](O)C(=O)NCCC(=O)NCCSCc1ccc(Cl)cc1` [4-chlorobenzyl-CoA] had a Ki of 45 ± 10 µM.

B1: 4-chlorobenzoate:CoA ligase (CBL; CBAL) (Alcaligenes sp. AL3007) (protein)
chain: MQTVNEMLRRAATRAPDHCALAVPARGLRLTHAELRARVEAVAARLHADGLRPQQRVAVVAPNSADVVIAILALHRLGAVPALLNPRLKSAELAELIKRGEMTAAVIAVGRQVADAIFQSGSGARIIFLGDLVRDGEPYSYGPPIEDPQREPAQPAFIFYTSGTTGLPKAAIIPQRAAESRVLFMSTQVGLRHGRHNVVLGLMPLYHVVGFFAVLVAALALDGTYVVVEEFRPVDALQLVQQEQVTSLFATPTHLDALAAAAAHAGSSLKLDSLRHVTFAGATMPDAVLETVHQHLPGEKVNIYGTTEAMNSLYMRQPKTGTEMAPGFFSEVRIVRIGGGVDEIVANGEEGELIVAASDSAFVGYLNQPQATAEKLQDGWYRTSDVAVWTPEGTVRILGRVDDMIISGGENIHPSEIERVLGTAPGVTEVVVIGLADQRWGQSVTACVVPRLGETLSADALDTFCRSSELADFKRPKRYFILDQLPKNALNKVLRRQLVQQVSS
In the case of B1, the Michaelis constant (Km) came out at 160 ± 20 µM in series [3], 180 ± 15 µM in series [4] and 30 ± 5 µM in “purified protein”. Besides, the kcat in series [3] is 8.0 ± 0.6 s⁻¹; in series [4] it was 8.2 ± 0.3 s⁻¹; in the series “purified protein” it was 8.0 ± 0.6 s⁻¹.

What is called Ki is a measure of affinity in units of concentration, obtained from inhibition or displacement. Read a low Ki as tighter binding. Broadly, the Km is the substrate concentration at which the rate is half of its maximum. What is called kcat is the number of substrate molecules converted per active site and unit of time at saturation.
